Laboratory results published in the Human Domainome abundance scans (Beltran et al. 2025).
± gives the uncertainty stated by the source.

B1: Transcription factor SOX-11, residues 50 to 117; numbered along this chain, P35716 (parent)
chain: KRPMNAFMVWSKIERRKIMEQSPDMHNAEISKRLGKRWKMLKDSEKIPFIREAERLRLKHMADYPDYK

Variants of: B1
Experiment: abundance fitness (aPCA) (normalised: wild type 0, dead -1); higher = more abundant; growth selection in yeast, the domain comes from the species named
Conditions: Homo sapiens

| Variant | abundance fitness |
| --- | --- |
| I18Y | -0.34 ± 0.075 |
| H60Q | 0.222 ± 0.12 |
| H60L | -0.273 ± 0.068 |
| H60T | 0.103 ± 0.074 |
| H60W | -0.607 ± 0.18 |
| H60S | -0.017 ± 0.05 |
| K1T | 0.032 ± 0.082 |
| K1D | 0.21 ± 0.059 |
| K1I | -0.048 ± 0.062 |
| K1M | -0.421 ± 0.2 |
| K1E | 0.258 ± 0.17 |
| K46T | -0.619 ± 0.089 |
| K46E | -0.74 ± 0.37 |
| K46L | -0.982 ± 0.11 |
| K46C | -0.848 ± 0.088 |
| K46M | -0.85 ± 0.3 |
| K46A | -0.871 ± 0.12 |
| K46W | -0.995 ± 0.27 |
| K46D | -0.777 ± 0.098 |
| F7P | -0.967 ± 0.16 |
| F7C | -0.534 ± 0.098 |
| F7V | -1.03 ± 0.14 |
| F7E | -0.689 ± 0.32 |
| F7I | -0.795 ± 0.1 |

| Variant | abundance fitness |
| --- | --- |
| F7R | -0.478 ± 0.082 |
| F7Q | -0.476 ± 0.21 |
| E29Q | -0.517 ± 0.19 |
| E29C | -0.767 ± 0.087 |
| E29A | -0.436 ± 0.078 |
| E29S | -0.638 ± 0.07 |
| E29I | -0.815 ± 0.095 |
| E29H | -0.666 ± 0.1 |
| E29P | -0.866 ± 0.22 |
| E29T | -0.753 ± 0.12 |
| E29G | -0.792 ± 0.076 |
| E29Y | -0.969 ± 0.11 |
| K42F | -0.673 ± 0.065 |
| K42P | 0.021 ± 0.068 |
| K42D | -0.263 ± 0.063 |
| S44G | -0.208 ± 0.078 |
| S44M | -0.362 ± 0.2 |
| S44C | -0.089 ± 0.078 |
| S44F | -0.132 ± 0.066 |
| S44R | -0.24 ± 0.078 |
| A6W | -1.29 ± 0.34 |
| A6E | -0.338 ± 0.24 |
| A6P | -0.524 ± 0.11 |
| A6S | -0.531 ± 0.068 |

| Variant | abundance fitness |
| --- | --- |
| A6V | -0.629 ± 0.082 |
| A6D | -0.751 ± 0.12 |
| R37Y | -0.59 ± 0.068 |
| R37I | -0.123 ± 0.051 |
| R37P | -1.13 ± 0.23 |
| R37K | -0.039 ± 0.094 |
| L34Y | -0.826 ± 0.089 |
| L34M | -0.547 ± 0.16 |
| L34K | -1.29 ± 0.39 |
| L34H | -0.846 ± 0.11 |
| L34D | -0.685 ± 0.1 |
| L34Q | -0.638 ± 0.23 |
| L34S | -0.719 ± 0.074 |
| L34P | -0.222 ± 0.11 |
| L34N | -0.82 ± 0.092 |
| P48R | -0.604 ± 0.12 |
| P48T | -0.719 ± 0.11 |
| R2Y | 0.272 ± 0.061 |
| R2Q | 0.037 ± 0.14 |
| R2I | 0.113 ± 0.055 |
| R2H | 0.086 ± 0.077 |
| R2N | 0.166 ± 0.059 |
| R2K | -0.041 ± 0.12 |
| R2S | 0.064 ± 0.047 |

| Variant | abundance fitness |
| --- | --- |
| R2M | 0.158 ± 0.096 |
| K68L | -0.642 ± 0.4 |
| K68S | -0.093 ± 0.33 |
| K68C | 0.354 ± 0.28 |
| V9N | -0.734 ± 0.089 |
| V9T | -0.777 ± 0.12 |
| V9M | -0.61 ± 0.17 |
| V9A | -0.644 ± 0.12 |
| V9G | -0.687 ± 0.11 |
| V9C | -0.448 ± 0.087 |
| K32E | 0.245 ± 0.16 |
| K32V | -0.101 ± 0.057 |
| I30N | -0.701 ± 0.092 |
| I30C | -0.304 ± 0.053 |
| I30M | -0.711 ± 0.17 |
| I30V | 0.039 ± 0.051 |
| I50R | -0.01 ± 0.059 |
| I47L | 0.162 ± 0.042 |
| I47G | -0.259 ± 0.042 |
| I47S | -0.279 ± 0.04 |
| I47P | -1.04 ± 0.13 |
| I47H | -0.46 ± 0.053 |
| Y67I | -0.027 ± 0.097 |
| Y67A | 0.149 ± 0.14 |

| Variant | abundance fitness |
| --- | --- |
| M40D | 0.111 ± 0.061 |
| M40I | -0.605 ± 0.067 |
| M40K | 0.29 ± 0.16 |
| M40L | 0.011 ± 0.05 |
| M40R | -0.372 ± 0.072 |
| R51F | -0.411 ± 0.055 |
| R51P | -0.473 ± 0.11 |
| R51Q | 0.189 ± 0.15 |
| R51D | -0.129 ± 0.058 |
| R51A | -0.069 ± 0.054 |
| R51V | -0.075 ± 0.049 |
| D24L | -0.507 ± 0.078 |
| D24M | -0.63 ± 0.32 |
| D24N | -0.128 ± 0.071 |
| D24I | -0.538 ± 0.09 |
| D24F | -0.435 ± 0.066 |
| D24E | -0.164 ± 0.17 |
| D24Y | -0.35 ± 0.062 |
| K39Q | 0.05 ± 0.14 |
| K39R | -0.119 ± 0.068 |
| K39F | -0.455 ± 0.065 |
| K39H | -0.473 ± 0.087 |
| K39S | -0.148 ± 0.049 |
| E54V | -0.671 ± 0.074 |

| Variant | abundance fitness |
| --- | --- |
| E54W | -0.576 ± 0.36 |
| E54H | -0.641 ± 0.097 |
| E54G | -0.714 ± 0.085 |
| R33P | -0.75 ± 0.15 |
| R33W | 0.125 ± 0.095 |
| R33H | -0.008 ± 0.066 |
| R33T | 0.367 ± 0.069 |
| R33S | 0 ± 0.047 |
| E52S | -0.785 ± 0.072 |
| E52C | -0.515 ± 0.064 |
| E52F | -0.546 ± 0.067 |
| E52V | -0.404 ± 0.057 |
| E52Y | -0.598 ± 0.082 |
| E52R | -0.735 ± 0.076 |
| E52A | -0.462 ± 0.084 |
| K36L | 0.034 ± 0.057 |
| K36Y | 0.041 ± 0.056 |
| K36I | 0.199 ± 0.058 |
| K36M | -0.047 ± 0.097 |
| R57I | -0.384 ± 0.065 |
| R57H | -0.126 ± 0.067 |
| R57V | -0.373 ± 0.066 |
| R57Y | -0.248 ± 0.056 |
| R57W | -0.114 ± 0.1 |

| Variant | abundance fitness |
| --- | --- |
| R55Y | -0.43 ± 0.061 |
| R55N | -0.087 ± 0.055 |
| R55S | -0.146 ± 0.049 |
| R55I | -0.246 ± 0.067 |
| R55F | -0.356 ± 0.071 |
| R55E | -0.017 ± 0.14 |
| R55W | -0.277 ± 0.19 |
| M25C | -0.34 ± 0.058 |
| M25T | -0.317 ± 0.089 |
| M25Y | -0.793 ± 0.1 |
| M25A | -0.141 ± 0.072 |
| M25V | -0.278 ± 0.065 |
| M8W | -0.446 ± 0.18 |
| M8C | -0.168 ± 0.061 |
| M8R | -0.239 ± 0.069 |
| M8K | -0.394 ± 0.16 |
| M8I | -0.117 ± 0.047 |
| K12H | -0.006 ± 0.064 |
| K12G | -0.2 ± 0.062 |
| K12N | 0.014 ± 0.064 |
| K12L | -0.016 ± 0.074 |
| K12V | 0.012 ± 0.05 |
| K12I | -0.099 ± 0.059 |
